Results on 15 molecules are retold here after patent US20250289873A1 (published 2025).

Experiment [1] concerns the target T1, FHR-4 (coated on plate, C3 convertase assembly assay) (UniProt Q92496 20-331).
T1 chain: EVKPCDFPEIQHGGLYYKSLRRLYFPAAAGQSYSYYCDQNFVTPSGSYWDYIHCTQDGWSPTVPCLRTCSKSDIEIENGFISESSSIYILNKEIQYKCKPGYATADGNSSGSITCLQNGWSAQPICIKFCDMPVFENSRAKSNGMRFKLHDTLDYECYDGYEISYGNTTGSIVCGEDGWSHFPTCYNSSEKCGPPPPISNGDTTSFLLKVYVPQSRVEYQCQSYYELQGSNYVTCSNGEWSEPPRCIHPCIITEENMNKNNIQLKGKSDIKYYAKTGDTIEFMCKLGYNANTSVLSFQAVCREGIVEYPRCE
The experiment can be described thus: C3 convertase assembly assay.

The target in a further experiment is hCFHR4. The experiment can be described thus: SPR kinetics. Background: Surface plasmon resonance follows binding to a sensor surface in real time, without labels.
In another experiment the target is T2, hCFHR4b.
T2 chain: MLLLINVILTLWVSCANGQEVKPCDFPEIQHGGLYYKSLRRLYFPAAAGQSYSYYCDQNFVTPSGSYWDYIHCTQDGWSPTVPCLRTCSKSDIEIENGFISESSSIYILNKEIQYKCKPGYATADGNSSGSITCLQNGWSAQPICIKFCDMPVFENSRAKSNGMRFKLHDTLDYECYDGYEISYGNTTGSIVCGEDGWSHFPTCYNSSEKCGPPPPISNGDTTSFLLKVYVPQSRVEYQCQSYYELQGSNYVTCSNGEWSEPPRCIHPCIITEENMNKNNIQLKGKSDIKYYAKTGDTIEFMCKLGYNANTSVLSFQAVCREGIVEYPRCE
The experiment can be described thus: SPR kinetics.

Experiment [2] addresses T1, FHR-4 (coated on plate, C3 convertase …). The experiment can be described thus: C3 convertase assembly assay.

Read-outs that look alike come from different tables or passages of the source.

B1: ATX-P-564 (antibody, V domains shown)
VH: EVQLVESGGGLVKPGGSLRLSCAASGFTFSSYTMNWVRQAPGKGLEWVSSISSSSSYTYYADSVRGRFTISRDNAKNSLYLQMSSLRAEDTAVYYCARSASIAAGMDVWGKGTTVTVSS
VL: DIVMTQSPLSLPVTPGEPASISCRSSQSLLHSTGYNFLDWYLQKPGLSPQLLIYLASNRASGVPDRFSGSGSGTDFTLKISRVEAEDVGVYYCMQALQTPYTFGQGTKLEIKR
A word on the IC50: it is the concentration that inhibits the measured activity by half. For orientation: Kd means the constant that tells how readily two partners part at equilibrium. For the molecule B1, 3.94 nM corresponded to half-maximal inhibition in experiment [1] (IC50). Besides, in the experiment with hCFHR4, the Kd is 3.56 nM.

B2: ATX-P-600 (antibody, V domains shown)
VH: EVQLVESGGGLVQPGRSLRLSCAASGFTFDDYAMHWVRQVPGRGLEWVSGISWSGGSIGYADSVKGRFTISRDNSKNSLYLQMNSLRAEDTALYYCTKDREDGYNYGGVFDYWGQGTLVTVSS
VL: EIVLTQSPGTLSLSPGERATLSCRASQNVRGSYLAWYQQKPGQAPRLLIYGASNRATDIPDRFSGSGSGTDFTLTISGLEPEDFVVYYCQQYGSSYTFGQGTKVEIKR
Regarding B2, the Kd with hCFHR4b and in the experiment with hCFHR4 was 7.39 nM throughout. The half-inhibitory concentration (IC50) in experiment [1] was 8.44 nM; in experiment [2] it was 8.4 nM.

B3: ATX-P-603 (antibody, V domains shown)
VH: QVQLQESGPGLVKPSGTLSLTCAVSGGSISGSHWWSWFRQPPGKGLEWIGEIYHTGSTNKNPSLKSRVTISLDKSKNQFSLRLRSVTDADTAVYYCARDQYTGSPRDAFDIWGQGTMVTVSS
VL: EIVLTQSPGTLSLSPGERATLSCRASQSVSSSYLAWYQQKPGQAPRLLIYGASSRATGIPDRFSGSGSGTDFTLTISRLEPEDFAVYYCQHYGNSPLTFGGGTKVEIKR
Turning to B3, the Kd with hCFHR4b and with hCFHR4 was 0.917 nM throughout. The IC50 in experiment [1] and in experiment [2] was 7.6 nM throughout.

B4: ATX-P-596 (antibody, V domains shown)
VH: EVQLVESGGGLVQPGRSLRLSCAASGFSFDDYAMHWVRQVPGKGLEWVSGISWTGGSVGYADPVKGRFTISRDNAKNSLYLQMNSLRPEDTALYYCAKDMGDGYSRNWPFDYWGQGTLVTVSS
VL: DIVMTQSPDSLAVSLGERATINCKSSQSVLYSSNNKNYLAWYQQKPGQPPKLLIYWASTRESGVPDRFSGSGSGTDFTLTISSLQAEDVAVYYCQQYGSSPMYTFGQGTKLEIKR
Regarding B4, in the experiment with hCFHR4, the dissociation constant Kd is 0.225 nM.

B5: ATX-P-587 (antibody, V domains shown)
VH: QVQLQQSGPGLVKPSQTLSLTCAISGDSVSSNSAAWNWIRQSPSRGLEWLGKTYYRSKWYNYYALSVKSRITINPDTSKNQFSLHLNSVTPEDTAVYYCARDGDYYLPSPFDLWGHGTMVTVSS
VL: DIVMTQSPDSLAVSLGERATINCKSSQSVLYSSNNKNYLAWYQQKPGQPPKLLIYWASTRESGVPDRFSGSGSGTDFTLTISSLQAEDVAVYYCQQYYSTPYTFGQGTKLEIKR
With B5, the Kd with hCFHR4 was 4.26 nM.

B6: ATX-P-563 (antibody, V domains shown)
VH: QVQLQESGPGLMKPSETLSLTCTVSGGSISSHYWSWIRQPPGKGLEWIGYIFYSGNINYNPSLKSRVTISVDTSKNQFSLKLRSVTTADTAVYYCARDRGGSYSYHFDCWGQGTLVTVSS
VL: DIQMTQSPSSVSASVGDRVTITCRASQSFAGWLAWYQQKPGKAPKLLIYAASTLQSGVPSRFSGSGSGTDFTLTISSLQPEDFATYYCQQANSFPLTFGGGTKVEIKR
In turn, B6 displayed a dissociation constant (Kd) with hCFHR4 of 1.05 nM.

B7: ATX-P-595 (antibody, V domains shown)
VH: QVQLQQSGPGLVKPSQTLSLTCAISGDSVSSNSAAWNWIRQSPSRGLEWLGRTYYRSKWFNDYALSVKSRITINPDTSKNQFSLHLNSVTPEDTAVYYCAREPGIVAPGPFDYWGQGTLVTVSS
VL: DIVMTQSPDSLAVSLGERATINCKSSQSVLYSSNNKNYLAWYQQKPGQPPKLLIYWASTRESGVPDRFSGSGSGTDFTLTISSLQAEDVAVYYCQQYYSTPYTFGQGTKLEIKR
For the molecule B7, the Kd in the experiment with hCFHR4b and in the experiment with hCFHR4 was 16.9 nM each time. Also, the values for the IC50 in experiment [1] and in experiment [2] were 5.94 nM and 5.9 nM, respectively.

B8: ATX-P-592 (antibody, V domains shown)
VH: QVQLQQSGPGLVKPSQTLSLTCAISGDSVSSNSAAWNWIRQSPSRGLEWLGRTYYRSKWYSDYPLSVKSRITINPDTSKNQFSLQLNSVTPEDTAVYYCARDSGIVETTPFDYWGQGTLVTVSS
VL: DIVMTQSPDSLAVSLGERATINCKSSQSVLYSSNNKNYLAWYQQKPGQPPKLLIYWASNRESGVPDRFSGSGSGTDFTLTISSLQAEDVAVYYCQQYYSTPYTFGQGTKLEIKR
For the molecule B8, the Kd in the experiment with hCFHR4b and in the experiment with hCFHR4 was 0.973 nM in each case. Besides, the IC50 in experiment [1] was 4.28 nM; in experiment [2], 4.2 nM.

B9: ATX-P-591 (antibody, V domains shown)
VH: QVQLVQSGAEVKKPGASVKVSCKASGYTFTSYGISWVRQAPGQGLEWMGWISAYNGNTNYAQKLQGRVTMTTDTSTSTAYMELRSLRSDDTAIYYCTRDLRGTAFDYWGQGTPVTVSS
VL: DIQMTQSPSSLSASVGDRVTITCRASQSINTYLNWYQQKPGKAPKLLIYAASSLQSGVPSRFSGSGSGTDFTLTISSLQPEDFATYSCQHSFTTPFTFGPGTKLEIKR
As to B9, binding with hCFHR4 was characterised by a dissociation constant (Kd) of 117 nM.

B10: ATX-P-566 (antibody, V domains shown)
VH: QVQLQQSGPGLVKPSQTLSLTCAISGDSVSSNSAAWNWIRQSPSRGLEWLGRTYYRSKWFNNYSVSVKSRIAINPDTSKNQFSLQLNSVTPEDTAVYYCARDLGELLDWYFDLWGRGTLVTVSA
VL: EIVLTQSPGTLSLSPGDRATLSCRASQSVRNSYVAWYQQKPGQAPRLLIYGASSRATGIPDRFSGSGSGTDFSLTIGRLEPEDFVVYYCQQYGNSPLTFGGGTKVEIKR
In the case of B10, it took 3.27 nM to reach half-maximal inhibition in experiment [1] (IC50). The Kd with hCFHR4 is 3.48 nM.

B11: ATX-P-569 (antibody, V domains shown)
VH: EVQLVESGGGLAQFGRSLRLSCAASGFTFDDYAMHWLRQAPGMGLEWVSGISWNSGSIGYADSVKGRFTIARDNAKNSVHLQMNSLRAEDTALYYCAKDIGNGYTKGDVFDIWGQGTMVTVSS
VL: DIQMTQSPSTLSASVGDSVTITCRASQNIITWLAWYQQKPGKAPNLLIYKASSLESGVPSRFSGSGSGTEFTLTISSLQPDDFATYYCQQYSSYSYTFGQGTKLEIKR
For the molecule B11, the Kd with hCFHR4b and with hCFHR4 was 1.44 nM each time. Also, the IC50 in experiment [1] was found to be 12.1 nM; in experiment [2], 12 nM.

B12: ATX-P-594 (antibody, V domains shown)
VH: QVQLQQSGPGLVKPSQTLSLTCAISGDSVSSNSASWNWIRQSPSRGLEWLGTTYYRSKWFNVYAVSVKSRITINPDTSKNQFSLHLNSVTPEDTAIYFCTRDRGDLLHWYFDLWGRGTLVTVSS
VL: EIVLTQSPGTLSLSPGERATLSCRASQSVSSSYLAWYQQKPGQSPRLLIYGASSRATGIPDRFSGSGSGTDFTLTISRLEPEDFAVYYCQQYGRSVTFGGGTKLEIKR
On to B12, for which the Kd with hCFHR4b and in the experiment with hCFHR4 was 0.326 nM throughout. For the same molecule, the results for the IC50 in experiment [1] and in experiment [2] were 4.09 nM and 4 nM, respectively.

B13: ATX-P-604 (antibody, V domains shown)
VH: QVQLQQSGPGLVKPTQTLSLTCAISGDSVSSNSAAWNWIRQSPSRGLEWLGRTYYRSKWFNGYAVSVKSRITINPDASKNQFSLHLKSVTDEDTAVYYCATDRGELLHWYFDLWGRGTLVTVSS
VL: EIVLTQSPDTLSLSPGERATLSCRASQTIRSSYLAWYQLKPGQAPRLLIYGASSRATGIPDRFSGSGSGTDFTLSISRLEPEDFAVYYCQQYGRSIIFGGGTKVEIKR
Take B13: binding in the experiment with hCFHR4 was characterised by a dissociation constant (Kd) of 0.222 nM.

B14: ATX-P-577 (antibody, V domains shown)
VH: QVQLQESGPGLVKPSGTLSLTCAVSGGSISSSNWWTWVRQPPGKGLEWIGETYHDGSTNYNPSLKSRVTISVDKSKNQFSLKLSSVTAADTAVYYCLEFYFDYWGQGTLVTVSS
VL: DIQMTQSPSSLSASVGDRVTITCRASQDIRNDLGWYQQKPGKVPKRLIYAASSLQSGVPSRFSGSGSGTEFTLTISSLQPEDFASYYCLQYNNYPFTLGPGTKVDIKR
As for B14, the Kd with hCFHR4 is 0.665 nM.

B15: ATX-P-582 (antibody, V domains shown)
VH: QVQLQESGPGLVKPSGTLSLTCAVSGGSISISKWWSWVRQPPGKGLEWIGEIYHTGSTNYHPSLKSRVTISVDKSKNQFYLKLNSVTAADTAVYYCARDELRLGELSPSLDIWGQGTMVTVSS
VL: DIQMTQSPSSLSASVGDRVTITCRASQNINNYLNWFRQKPGKAPKLLIFAASSLQSGVPSRFSGSESGTDFTLTISSLQPEDFATYYCQQSYSTPLTFGGGTKVEIKR
In the experiment with hCFHR4, B15 returned a Kd of 10 nM.
